# Reference: US10647775B2
# Target: recombinant, biotinylated, Human 4-1BB/TNFRSF9/CD137-Fc (human) (UniProt Q07011)
# Experiment: phage ELISA, CD137-Fc against control IgG Fc
# recombinant, biotinylated, Human 4-1BB/TNFRSF9/CD137-Fc (human), sequence (Q07011 24-186 limits assumed): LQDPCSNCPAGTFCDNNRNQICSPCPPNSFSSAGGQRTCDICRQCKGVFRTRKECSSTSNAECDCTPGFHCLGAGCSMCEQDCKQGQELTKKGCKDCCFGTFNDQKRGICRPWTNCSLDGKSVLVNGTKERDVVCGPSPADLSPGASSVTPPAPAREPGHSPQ
row,Binder,ELISA ratio (target to background)
1,bb10 (designed binder) MGSWAEFKQRLAAIKTRLEALGGSEAELAAFLGEIWAFEMELAAYKGKGNPEVEALGREAAAIRMELQAYRHN,5.27

# Target: recombinant, biotinylated, Human 4-1BB/TNFRSF9/CD137-Fc (human) (UniProt Q07011)
# Experiment: phage ELISA of rescued clones
row,Binder,ELISA absorbance (average)
1,bb10 (designed binder) MGSWAEFKQRLAAIKTRLEALGGSEAELAAFLGEIWAFEMELAAYKGKGNPEVEALGREAAAIRMELQAYRHN,0.353

# Target: IgG Fc (control)
# Experiment: phage ELISA of rescued clones on control IgG Fc
row,Binder,ELISA absorbance (average)
1,bb10 (designed binder) MGSWAEFKQRLAAIKTRLEALGGSEAELAAFLGEIWAFEMELAAYKGKGNPEVEALGREAAAIRMELQAYRHN,0.067

# Target: CTLA4-Fc (Homo sapiens (Human)) (UniProt P16410)
# Experiment: phage ELISA, target-Fc against non-specific control (IgG1-Fc)
# CTLA4-Fc (Homo sapiens (Human)), sequence (P16410 37-162 limits assumed): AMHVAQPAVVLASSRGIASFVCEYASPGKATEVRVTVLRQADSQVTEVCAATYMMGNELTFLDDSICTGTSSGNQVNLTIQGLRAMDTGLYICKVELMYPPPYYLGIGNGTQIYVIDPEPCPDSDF
row,Binder,ELISA ratio (target to background)
1,DBDpp of SEQ ID NO: 25 (designed binder) MGSWHEFHDRLQAIHERLYALGGSEAELAAFEKEIAAFESELQAYKGKGNPEVESLRIAAAHIRQVLQAYRHN,2.95

# Target: KIR-Fc
# Experiment: as above
row,Binder,ELISA ratio (target to background)
1,DBDpp of SEQ ID NO: 35 (designed binder) MGSWSEFYNRLDAIESRLLALGGSEAELALFEIQIARFEKVLQAYKGKGNPEVEALRGEARAIFAELYAYRHN,8.4
2,DBDpp of SEQ ID NO: 36 (designed binder) MGSWYEFYNRLYAIEIRLYALGGSEAELAAFEKEIAAFESELQAYKGKGNPEVERLRVRAAKIRVILQAYRHN,4.24
3,DBDpp of SEQ ID NO: 37 (designed binder) MGSWLWFKIFLAEIKYFLEALGGSEAELAAFDFEIHAFHVELFAYKGKGNPEVEVLREVAAEIRWDLQAYRHN,4.17

# Target: DR5-Fc (Homo sapiens (Human)) (UniProt O14763)
# Experiment: as above
# DR5-Fc (Homo sapiens (Human)), sequence (O14763 56-182 limits assumed): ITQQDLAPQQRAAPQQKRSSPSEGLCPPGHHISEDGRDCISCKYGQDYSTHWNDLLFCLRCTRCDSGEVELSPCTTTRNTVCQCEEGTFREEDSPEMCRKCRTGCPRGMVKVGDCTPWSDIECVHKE
row,Binder,ELISA ratio (target to background)
1,DBDpp of SEQ ID NO: 27 (designed binder) MGSWLYFKEHLAHIKAWLEALGGSEAELAHFELAIADFEYHLQEYKGKGNPEVEALRKEAAAIRDELQAYRHN,12.3
2,DBDpp of SEQ ID NO: 28 (designed binder) MGSWVYFKEHLAWIKTELEALGGSEAELAHFEHSIADFEMSLQFYKGKGNPEVEALRKEAAAIRDELQAYRHN,12.1
3,DBDpp of SEQ ID NO: 29 (designed binder) MGSWFYFKQHLAWIKSYLEALGGSEAELAHFERAIAAFEQHLQMYKGKGNPEVEALRKEAAAIRDELQAYRHN,11.8
4,DBDpp of SEQ ID NO: 30 (designed binder) MGSWHYFKDHLAEIKGLLEALGGSEAELAHFEMAIADFEHNLQYYKGKGNPEVEALRKEAAAIRDELQAYRHN,11.4
5,DBDpp of SEQ ID NO: 31 (designed binder) MGSWHYFKGHLAEIKNHLEALGGSEAELAHFERAIAAFERSLQWYKGKGNPEVEALRKEAAAIRDELQAYRHN,10.8

# More lines, now with the values ahead:
row,ELISA ratio (target to background),Binder
1,13,DBDpp of SEQ ID NO: 26 (designed binder) MGSWNYFKDHLAWIKNSLEALGGSEAELAHFETAIASFERQLQEYKGKGNPEVEALRKEAAAIRDELQAYRHN
2,10.7,DBDpp of SEQ ID NO: 32 (designed binder) MGSWIYFKEHLAYIKKELEALGGSEAELAHFESAIAVFESTLQYYKGKGNPEVEALRKEAAAIRDELQAYRHN
3,10.3,DBDpp of SEQ ID NO: 33 (designed binder) MGSWTYFKEHLAEIKYMLEALGGSEAELAHFEVAIADFEKMLQYYKGKGNPEVEALRKEAAAIRDELQAYRHN
4,9.75,DBDpp of SEQ ID NO: 34 (designed binder) MGSWWLFKDHLAEIKTALEALGGSEAELAHFEMAIAAFEKQLQYYKGKGNPEVEALRKEAAAIRDELQAYRHN

# Target: recombinant, biotinylated, Human 4-1BB/TNFRSF9/CD137-Fc (human) (UniProt Q07011)
# Experiment: as above
row,Binder,ELISA ratio (target to background)
1,DBDpp of SEQ ID NO: 15 (designed binder) MGSWYEFSMRLWAIDQRLYALGGSEAELAAFEKEIAAFESELQAYKGKGNPEVEALRAKAAYIRWKLQAYRHN,12
2,DBDpp of SEQ ID NO: 18 (designed binder) MGSWYEFHYRLHAIDQRLYALGGSEAELAAFEKEIAAFESELQAYKGKGNPEVEELRIKAAFIRDRLQAYRHN,7.26
3,DBDpp of SEQ ID NO: 12 (designed binder) MGSWVEFGHRLWAIDQRLYALGGSEAELAAFEKEIAAFESELQAYKGKGNPEVEKLRQRAAFIRFRLQAYRHN,20.6

# Results, then the binder that gave them:
row,ELISA ratio (target to background),Binder
1,11.9,DBDpp of SEQ ID NO: 16 (designed binder) MGSWFEFNHRLWAINERLYALGGSEAELAAFEKEIAAFESELQAYKGKGNPEVERLRSMAAFIRYKLQAYRHN
2,7.71,DBDpp of SEQ ID NO: 17 (designed binder) MGSWYEFGHRLWAIDQRLYALGGSEAELAAFEKEIAAFESELQAYKGKGNPEVEYLRETAAHIRTRLQAYRHN
3,16.1,DBDpp of SEQ ID NO: 13 (designed binder) MGSWVEFANRLWAIDQRLFALGGSEAELAAFEKEIAAFESELQAYKGKGNPEVEHLRDQAAFIRHKLQAYRHN
4,13,DBDpp of SEQ ID NO: 14 (designed binder) MGSWYEFRHRLWAIDQRLYALGGSEAELAAFEKEIAAFESELQAYKGKGNPEVEGLREAAAFIRAKLQAYRHN

# Target: CD47-Fc (Homo sapiens (Human)) (UniProt Q08722)
# Experiment: as above
# CD47-Fc (Homo sapiens (Human)), sequence (Q08722 19-139 limits assumed): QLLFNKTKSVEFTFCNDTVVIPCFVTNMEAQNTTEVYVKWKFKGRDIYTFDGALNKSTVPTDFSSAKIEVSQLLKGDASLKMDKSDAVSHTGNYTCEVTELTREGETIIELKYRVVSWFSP
row,Binder,ELISA ratio (target to background)
1,DBDpp of SEQ ID NO: 20 (designed binder) MGSWYEFDLRLHAIYDRLVALGGSEAELAAFEKEIAAFESELQAYKGKGNPEVEILRDNAAYIRQMLQAYRHN,14.1
2,DBDpp of SEQ ID NO: 21 (designed binder) MGSWTEFTYRLSAIEWRLWALGGSEAELAWFEQKIAFFEDFLQYYKGKGNPEVEALKHEAGAILNELMAYRHN,12.5
3,DBDpp of SEQ ID NO: 22 (designed binder) MGSWAEFDHRLHAIRERLHALGGSEAELAAFEKEIAAFESELQAYKGKGNPEVEILRGNAAYIRALLQAYRHN,11.7
4,DBDpp of SEQ ID NO: 23 (designed binder) MGSWTEFVGRLAAIEFRLWALGGSEAELAWFEAHIAFFEDYLQWYKGKGNPEVEALREEAGAIMEELKAYRHN,8.23
5,DBDpp of SEQ ID NO: 24 (designed binder) MGSWTEFYSRLEAIWVRLQALGGSEAELAMFEDRIAHFEWFLQQYKGKGNPEVEALHEEAIAIRKELAAYRHN,4.58

# Target: PD1-Fc (Homo sapiens (Human)) (UniProt Q15116)
# Experiment: as above
# PD1-Fc (Homo sapiens (Human)), sequence (Q15116 25-167 limits assumed): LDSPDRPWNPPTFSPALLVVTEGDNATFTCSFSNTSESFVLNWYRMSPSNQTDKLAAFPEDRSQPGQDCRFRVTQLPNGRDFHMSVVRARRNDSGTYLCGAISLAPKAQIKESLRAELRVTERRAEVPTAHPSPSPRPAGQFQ
row,Binder,ELISA ratio (target to background)
1,DBDpp of SEQ ID NO: 46 (designed binder) MGSWTIFKEWLAFIKTDLEALGGSEAELAFFEGWIASFEMELQKYKGKGNPEVEALRKEAAAIRDELQAYRHN,17.1
2,DBDpp of SEQ ID NO: 47 (designed binder) MGSWVMFKWLLADIKSHLEALGGSEAELAFFEGFIAAFETHLQVYKGKGNPEVEALRKEAAAIRDELQAYRHN,8.13
3,DBDpp of SEQ ID NO: 48 (designed binder) MGSWYAFKDYLADIKGWLEALGGSEAELAFFEIFIARFELELQAYKGKGNPEVEALRKEAAAIRDELQAYRHN,3.29

# Target: TIM3-Fc (Homo sapiens (Human)) (UniProt Q8TDQ0)
# Experiment: as above
row,Binder,ELISA ratio (target to background)
1,DBDpp of SEQ ID NO: 45 (designed binder) MGSWVVFKVDLATIKYILEALGGSEAELAEFEGEIAGFEYSLQFYKGKGNPEVEALRKEAAAIRDELQAYRHN,5.79

# Target: PD-L1-Fc (human) (UniProt Q9NZQ7)
# Experiment: as above
# PD-L1-Fc (human), sequence (Q9NZQ7 19-239 limits assumed): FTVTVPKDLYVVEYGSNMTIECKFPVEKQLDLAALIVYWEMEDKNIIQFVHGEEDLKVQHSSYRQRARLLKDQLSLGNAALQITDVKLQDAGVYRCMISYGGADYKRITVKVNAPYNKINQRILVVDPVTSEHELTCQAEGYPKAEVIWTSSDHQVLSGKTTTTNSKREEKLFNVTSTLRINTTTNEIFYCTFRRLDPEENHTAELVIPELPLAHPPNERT
row,Binder,ELISA ratio (target to background)
1,DBDpp of SEQ ID NO: 38 (designed binder) MGSWTEFQSRLDAIHSRLRALGGSEAELAAFEKEIAAFESELQAYKGKGNPEVELLRDDAAFIRHFLQAYRHN,8.68
2,DBDpp of SEQ ID NO: 39 (designed binder) MGSWQEFDDRLNAIKARLQALGGSEAELAAFEKEIAAFESELQAYKGKGNPEVEDLRDDAAFIRRFLQAYRHN,7.41
3,DBDpp of SEQ ID NO: 40 (designed binder) MGSWYEFQNRLHAIHERLNALGGSEAELAAFEKEIAAFESELQAYKGKGNPEVELLRDDAAFIRHFLQAYRHN,6.34
4,DBDpp of SEQ ID NO: 41 (designed binder) MGSWFEFQDRLTAINERLSALGGSEAELAAFEKEIAAFESELQAYKGKGNPEVETLRSDAAFIRRFLQAYRHN,6.01

# Further lines, results first:
row,ELISA ratio (target to background),Binder
1,4.88,DBDpp of SEQ ID NO: 42 (designed binder) MGSWYEFESRLDAIHERLHALGGSEAELAAFEKEIAAFESELQAYKGKGNPEVENLRGDAAFIRHFLQAYRHN
2,2.98,DBDpp of SEQ ID NO: 43 (designed binder) MGSWYEFNHRLDAISKRLNALGGSEAELAAFEKEIAAFESELQAYKGKGNPEVEELRGDAAFIRHFLQAYRHN
3,2.76,DBDpp of SEQ ID NO: 44 (designed binder) MGSWFEFENRLHAIVHRLGALGGSEAELAAFEKEIAAFESELQAYKGKGNPEVETLRADAAFIRHYLQAYRHN
